{
  "source": "paper PMC9351570",
  "target": "nucleosome: recombinant Xenopus laevis histone octamer assembled on 601 DNA with flanking DNA (Xenopus laevis)",
  "data": [
    {"substance": "mutant INO80 complex purified from yeast lacking Arp5 (from UniProt P53115 1-1489; P40154 1-320; Q12386 1-881)", "values": [
      {"measurement": "nucleosome sliding, native gel remodeling assay, kobs; 601 + 80 WT nucleosome", "value": 0.006, "unit": "min⁻¹"}
    ]}
  ]
}
